Where “and” joins values, the source holds several entries; their conditions need not be identical. Equal values may be shown once.
Details: Saccharomyces cerevisiae (strain ATCC 204508 / S288c); pH 7; 25 °C; GdnHCl; CD; Tris 20 mM; NaCl 40 mM; reversible: Yes

Chain of Cytochrome c isoform 1 wild type, P00044 (P00044 whole entry, canonical isoform): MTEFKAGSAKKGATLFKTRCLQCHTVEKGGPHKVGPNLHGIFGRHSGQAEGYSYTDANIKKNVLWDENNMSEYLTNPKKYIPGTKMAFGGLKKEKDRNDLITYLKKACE

Substance: Cytochrome c isoform 1 wild type, P00044
- denaturant midpoint (higher = more stable): 0.49 M and 0.45 M

Source: FireProtDB (doi:10.1016/j.jmb.2009.04.075)
